From patent US8597509B2, “Countercurrent chromatography rotor” (CC Biotech LLC, priority 2008, dated 2013)

Assay: Partition coefficient K in two-phase aqueous system PEG (1000) 12.5%-K2HPO4 12.5%
Assay type: physicochemical
Conditions: PEG (MW 1000) 12.5%-K2HPO4 12.5% two-phase aqueous solvent system
Source text: A determination of the partition coefficient, K, is made by dissolving a small sample into a solvent system, shaking the mixture, and measuring the concentration of the sample in both phases after separation of the phases. That provides the ratio of concentration in the upper to lower phase (Cu/Cl). The phase chosen as the mobile phase is that giving a partition coefficient of 1 to 2. The efficiency of a separation will be determined by use of the conventional gas chromatographic equation: N=(4R/W)^2. The theoretical plates or N is calculated from the shape of the peaks. R is the retention time or volume of the peak maximum and W is the peak width expressed in the same units as R. For preparative separations, the values of N may be up to 1000, but the more important relationship is resolution. Resolution between adjacent peaks is given by: RS=2(VR,2−VR,1)/(W1+W2). Using that equation and substituting each solute retention volume by the following: VR=Vm+KVS. The Vm term cancels giving: RS=2(K2−K1)Vs/(W1+W2).
The apparatus of interest can be used to separate proteins or other large molecules. In this example, the spiral tube support was made as described above and used to purify mouse uteroglobin. Mouse uteroglobin has a MW of […] and normally exists as a dimer; but, in solution, a monomeric form of the protein can also accumulate. A separation was made in the spiral tube support to separate uteroglobin monomers from uteroglobin dimers. This was done by measuring the K value using HPLC and then separating the protein using countercurrent chromatography with the spiral tube support apparatus. […] The heights of the peaks representing the monomer at 31.5 min. and dimer at 32.8 min. HPLC retention time, respectively, were measured and the ratios give different values for the concentration in the upper phase over that of the lower phase. The two protein peaks calculated to K values of 4.0 and 6.9 in PEG (1000) 12.5%-K2HPO4 12.5%. The different K values mean that the two species could be separated with one or the other phase mobile. Since the numeric value is over two, the analyte would remain in the coil a long time, ultimately being eluted in approximately four to seven column volumes. Consequently, a run was performed for two column volumes and then the contents of the column were extruded and analyzed.
In this example, 31 mg lysozyme (14.4 kDa) and 24 mg myoglobin (17.7 kDa) were mixed and separated using the countercurrent chromatography apparatus and methods of use as claimed. A non-denaturing two-phase aqueous solvent system consisting of 12.5% PEG (MW 1000):12.5% K2HPO4 provides for a polyethylene-rich upper phase and phosphate buffer-rich lower phase. The lower phase was used as the mobile phase at a flow rate of 1 ml/min. […]

Substance | K value (concentration in upper phase over lower phase)
lysozyme | 1.35
myoglobin | 0.38
uteroglobin dimer: dimeric form of mouse uteroglobin protein | 6.9
uteroglobin monomer: monomeric form of mouse uteroglobin protein | 4.0
